According to the Human Domainome abundance scans (Beltran et al. 2025):
± gives the uncertainty stated by the source.

B1: Intersectin-1, residues 1156 to 1213; numbered along this chain, Q15811 (parent)
chain: AVCQVIGMYDYTAQNDDELAFNKGQIINVLNKEDPDWWKGEVNGQVGLFPSNYVKLTT

Variants of: B1
Test: abundance fitness (aPCA) (normalised: wild type 0, dead -1); higher = more abundant; growth selection in yeast, the domain comes from the species named
Settings: Homo sapiens
K32R gave an abundance fitness of 0.066 ± 0.089. Work on K32S yielded an abundance fitness of -0.16 ± 0.13. With K32G the abundance fitness was -0.527 ± 0.095. In the case of K32C, the abundance fitness is reported as -0.147 ± 0.14. Work on K32P yielded an abundance fitness of -0.736 ± 0.2. With K32L the abundance fitness was -0.38 ± 0.093. Work on K32D yielded an abundance fitness of -0.296 ± 0.15. K32N gave an abundance fitness of -0.339 ± 0.18. Work on K32M yielded an abundance fitness of -0.039 ± 0.15. Variant K32F has an abundance fitness of -0.576 ± 0.23. For K32Q, the abundance fitness was -0.035 ± 0.17. K32A showed an abundance fitness of 0.093 ± 0.095. Variant K32H has an abundance fitness of -0.449 ± 0.21. Variant V29H has an abundance fitness of -1.03 ± 0.26. In the case of V29I, the abundance fitness is reported as -0.617 ± 0.16. Work on V29L yielded an abundance fitness of -0.323 ± 0.099. With V29Q the abundance fitness was -1.01 ± 0.19. V29D showed an abundance fitness of -0.739 ± 0.14. V29R showed an abundance fitness of -0.9 ± 0.11. V29N showed an abundance fitness of -0.721 ± 0.23. Work on V29W yielded an abundance fitness of -0.672 ± 0.14. V29T gave an abundance fitness of -0.788 ± 0.16. Variant V29Y has an abundance fitness of -0.504 ± 0.24. V29G gave an abundance fitness of -0.742 ± 0.098. V29C gave an abundance fitness of -0.219 ± 0.13. V29E gave an abundance fitness of -0.925 ± 0.19. In the case of V29S, the abundance fitness is reported as -0.827 ± 0.13. Work on V29K yielded an abundance fitness of -0.699 ± 0.19. In the case of G24F, the abundance fitness is reported as -0.739 ± 0.26. Variant G24E has an abundance fitness of -0.895 ± 0.15. With G24W the abundance fitness was -0.528 ± 0.12. Variant G24S has an abundance fitness of -0.524 ± 0.099. Work on G24N yielded an abundance fitness of -0.348 ± 0.19. In the case of G24I, the abundance fitness is reported as -0.682 ± 0.26. Variant G24Q has an abundance fitness of -0.44 ± 0.15. G24A showed an abundance fitness of -0.854 ± 0.12. With G24P the abundance fitness was -0.825 ± 0.16. G24M showed an abundance fitness of -0.693 ± 0.17. Variant G24T has an abundance fitness of -0.599 ± 0.16. G24D gave an abundance fitness of -0.579 ± 0.18. G24K gave an abundance fitness of -0.571 ± 0.17. G24V gave an abundance fitness of -0.895 ± 0.13. For I27M, the abundance fitness was -0.696 ± 0.22. In the case of I27K, the abundance fitness is reported as -0.81 ± 0.23. For I27S, the abundance fitness was -0.915 ± 0.14. With I27A the abundance fitness was -0.789 ± 0.14. I27T showed an abundance fitness of -0.859 ± 0.16. With I27E the abundance fitness was -0.811 ± 0.2. With I27G the abundance fitness was -0.746 ± 0.1. Variant I27D has an abundance fitness of -0.695 ± 0.21. Work on I27Y yielded an abundance fitness of -0.564 ± 0.2. With I27P the abundance fitness was -0.612 ± 0.17. I27N showed an abundance fitness of -0.765 ± 0.28. Variant I27F has an abundance fitness of -0.805 ± 0.22. With I27L the abundance fitness was -0.373 ± 0.11. With I27V the abundance fitness was -0.297 ± 0.096. For I27R, the abundance fitness was -0.85 ± 0.1. Work on I27H yielded an abundance fitness of -0.748 ± 0.25. I27Q gave an abundance fitness of -1.05 ± 0.23. For I27W, the abundance fitness was -0.908 ± 0.18. In the case of N28C, the abundance fitness is reported as -0.632 ± 0.25. For N28Y, the abundance fitness was -0.011 ± 0.44. N28F gave an abundance fitness of -0.243 ± 0.4. In the case of N28R, the abundance fitness is reported as -0.065 ± 0.13. In the case of N28K, the abundance fitness is reported as -0.014 ± 0.33. N28V showed an abundance fitness of -0.423 ± 0.17. N28I showed an abundance fitness of -0.451 ± 0.31. Work on N28M yielded an abundance fitness of -0.298 ± 0.24. N28E gave an abundance fitness of -0.156 ± 0.22. For N28Q, the abundance fitness was -0.399 ± 0.29. For N28S, the abundance fitness was 0.186 ± 0.18. N28D showed an abundance fitness of -0.284 ± 0.2. Work on N28T yielded an abundance fitness of 0.281 ± 0.23. With N28P the abundance fitness was -0.942 ± 0.38. N28A showed an abundance fitness of -0.225 ± 0.15. Variant N28G has an abundance fitness of -0.732 ± 0.16. In the case of I26P, the abundance fitness is reported as -0.561 ± 0.23. For I26E, the abundance fitness was -0.278 ± 0.16. In the case of I26L, the abundance fitness is reported as 0.18 ± 0.12. I26M gave an abundance fitness of -0.462 ± 0.2. Work on I26S yielded an abundance fitness of -0.554 ± 0.14. With I26T the abundance fitness was 0.163 ± 0.15. Work on I26G yielded an abundance fitness of -0.857 ± 0.14. I26F gave an abundance fitness of -0.523 ± 0.3. I26K showed an abundance fitness of -0.084 ± 0.19. For I26A, the abundance fitness was -0.237 ± 0.13. In the case of I26V, the abundance fitness is reported as 0.297 ± 0.12. I26C gave an abundance fitness of -0.149 ± 0.17. With I26Q the abundance fitness was -0.304 ± 0.22. With I26D the abundance fitness was -0.807 ± 0.22. I26R showed an abundance fitness of -0.131 ± 0.094. I26W showed an abundance fitness of -0.505 ± 0.17. In the case of I26H, the abundance fitness is reported as -0.332 ± 0.26. K23P showed an abundance fitness of -0.921 ± 0.21. Work on K23C yielded an abundance fitness of -0.275 ± 0.14. K23V gave an abundance fitness of -0.21 ± 0.097. With K23H the abundance fitness was -0.298 ± 0.15. K23S showed an abundance fitness of -0.214 ± 0.09. Work on K23N yielded an abundance fitness of -0.494 ± 0.24. With K23D the abundance fitness was -0.859 ± 0.23. K23E gave an abundance fitness of -0.011 ± 0.11. With K23L the abundance fitness was -0.77 ± 0.13. K23Q gave an abundance fitness of -0.043 ± 0.14. With K23R the abundance fitness was 0.137 ± 0.08. With K23G the abundance fitness was -0.701 ± 0.11. Variant K23Y has an abundance fitness of -0.673 ± 0.16. Work on K23T yielded an abundance fitness of 0.065 ± 0.11. For K23I, the abundance fitness was -0.849 ± 0.25. Variant K23M has an abundance fitness of -0.487 ± 0.17. Variant K23F has an abundance fitness of -0.613 ± 0.21. Variant K23A has an abundance fitness of 0.215 ± 0.097. K23W gave an abundance fitness of -0.852 ± 0.16. N22K showed an abundance fitness of -0.027 ± 0.16. For N22S, the abundance fitness was 0.009 ± 0.084. For N22M, the abundance fitness was 0.02 ± 0.14. N22I gave an abundance fitness of -0.286 ± 0.18. For N22V, the abundance fitness was -0.06 ± 0.086. Variant N22G has an abundance fitness of -0.006 ± 0.074. For N22L, the abundance fitness was -0.285 ± 0.12. N22W showed an abundance fitness of -0.466 ± 0.13. In the case of N22Y, the abundance fitness is reported as -0.422 ± 0.14. Variant N22D has an abundance fitness of 0.164 ± 0.15. N22P showed an abundance fitness of -0.062 ± 0.14. In the case of N22F, the abundance fitness is reported as -0.432 ± 0.13. In the case of N22E, the abundance fitness is reported as 0.174 ± 0.14. N22A gave an abundance fitness of 0.157 ± 0.099. N22C gave an abundance fitness of 0.128 ± 0.1. F21Y gave an abundance fitness of -1.06 ± 0.28. F21V gave an abundance fitness of 0.013 ± 0.089. Variant F21W has an abundance fitness of -0.718 ± 0.12. With N31I the abundance fitness was -0.559 ± 0.27. Work on N31L yielded an abundance fitness of -0.631 ± 0.12. Work on N31W yielded an abundance fitness of -0.287 ± 0.12. N31P showed an abundance fitness of -0.833 ± 0.18. N31F showed an abundance fitness of -1.05 ± 0.42. With N31V the abundance fitness was -0.313 ± 0.11. For N31Q, the abundance fitness was -0.099 ± 0.13. In the case of N31A, the abundance fitness is reported as 0.037 ± 0.12. With N31C the abundance fitness was 0.287 ± 0.16. N31G showed an abundance fitness of -0.076 ± 0.088. Work on N31M yielded an abundance fitness of -0.275 ± 0.13. Variant N31S has an abundance fitness of 0.006 ± 0.098. Variant N31Y has an abundance fitness of -0.525 ± 0.27. In the case of N31R, the abundance fitness is reported as -0.373 ± 0.094. N31E gave an abundance fitness of 0.196 ± 0.15. N31K showed an abundance fitness of -0.319 ± 0.15. N31T showed an abundance fitness of -0.159 ± 0.11. Work on N31H yielded an abundance fitness of -0.095 ± 0.23. N31D gave an abundance fitness of 0.223 ± 0.16. Variant L30P has an abundance fitness of -1.04 ± 0.24. For L30M, the abundance fitness was -0.412 ± 0.15. In the case of L30K, the abundance fitness is reported as -0.825 ± 0.31. With L30D the abundance fitness was -0.917 ± 0.27. In the case of L30T, the abundance fitness is reported as -0.476 ± 0.15. L30I gave an abundance fitness of 0.043 ± 0.18. L30Q gave an abundance fitness of -0.257 ± 0.18. With L30V the abundance fitness was -0.081 ± 0.085. For L30S, the abundance fitness was -0.758 ± 0.14. With L30C the abundance fitness was -0.867 ± 0.24. Work on L30A yielded an abundance fitness of -0.911 ± 0.14. In the case of L30F, the abundance fitness is reported as -0.123 ± 0.14. Work on L30Y yielded an abundance fitness of -0.32 ± 0.22. Work on L30N yielded an abundance fitness of -0.505 ± 0.3. For L30H, the abundance fitness was -0.7 ± 0.37. L30E gave an abundance fitness of -0.978 ± 0.31. For L30G, the abundance fitness was -0.933 ± 0.14. L30R gave an abundance fitness of -0.712 ± 0.12.
